Square brackets hold non-standard residues; d marks the D form. Ends that are not written are not given here. αMeE = C[C@](N)(CCC(=O)O)C(=O)O
target: human GLP-1 receptor (human, UniProt P43220 24-463); assay: cell-based or functional assay

Binder	EC50 (nM), cAMP concentration in CHO cells expressing hGLP-IR [nM]
H[αMeE]QGTFTSDYSKYLDECRAKEFVQWLMNT (not fully specified) [glucagon derivative of SEQ ID NO: 13]	0.27
H[αMeE]QGTFTSDYSKYLDEKCAKEFVQWLMNT (not fully specified) [glucagon derivative of SEQ ID NO: 14]	0.17
H[αMeE]QGTFTSDYSKYLCEKRAKEFVQWLMNT (not fully specified) [glucagon derivative of SEQ ID NO: 12]	0.96

target: human glucagon receptor (human, UniProt P47871 26-477); assay: cell-based or functional assay
Sequence (P47871 26-477): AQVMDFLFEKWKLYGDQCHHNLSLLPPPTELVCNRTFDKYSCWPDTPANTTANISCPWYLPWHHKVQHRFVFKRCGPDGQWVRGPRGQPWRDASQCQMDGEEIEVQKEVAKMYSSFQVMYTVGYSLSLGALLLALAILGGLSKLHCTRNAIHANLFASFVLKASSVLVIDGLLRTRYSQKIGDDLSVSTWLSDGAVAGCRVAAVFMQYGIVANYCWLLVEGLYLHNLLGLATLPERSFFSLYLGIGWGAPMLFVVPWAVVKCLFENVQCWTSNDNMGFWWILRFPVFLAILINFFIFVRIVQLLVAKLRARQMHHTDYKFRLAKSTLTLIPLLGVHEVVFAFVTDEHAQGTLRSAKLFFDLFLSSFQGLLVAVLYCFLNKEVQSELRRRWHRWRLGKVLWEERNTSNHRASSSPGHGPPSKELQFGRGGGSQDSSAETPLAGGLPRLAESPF

Binder	EC50 (nM), cAMP concentration in CHO cells expressing hGCGR [nM]
H[αMeE]QGTFTSDYSKYLDECRAKEFVQWLMNT (not fully specified) [glucagon derivative of SEQ ID NO: 13]	0.23
H[αMeE]QGTFTSDYSKYLDEKCAKEFVQWLMNT (not fully specified) [glucagon derivative of SEQ ID NO: 14]	0.38
H[αMeE]QGTFTSDYSKYLCEKRAKEFVQWLMNT (not fully specified) [glucagon derivative of SEQ ID NO: 12]	1.38

Reference: US20220025012A1 (HANMI PHARM, published 2022)
